From patent US20080085280A1

What was measured:
[1] = target: FcαRIR209L/γ chimeric receptor (human) (UniProt P24071); test: cell-based or functional assay
[2] = target: wild-type human FcαRI (human) (UniProt P24071); test: cell-based or functional assay

inhibition of IgE-mediated degranulation against irrelevant control Fab [1]: 91%
Fab concentration giving maximal inhibition of degranulation [2]: 1 to 10 µg/mL
inhibition of FcεRI-induced degranulation, 10 µg/ml Fab [2]: > 50%
inhibition of IgE-mediated degranulation (β-hexosaminidase release), 10 µg/ml Fab [2]: 74%
inhibition of IgE-mediated degranulation against irrelevant control Fab [2]: 72%
inhibition of IgG-mediated phagocytosis of E. coli by human blood monocytes [2]: > 80%
Substance: anti-FcαRI Fab A77 (Fab fragment of anti-FcαRI mAb, IgG1κ, clone A77)
